Measured values published in patent US8575113.

Tests used:
[1] = target: GST-XIAP linker BIR 2 [GST: P08515]
[2] = target: GST-linker BIR 2 BIR3Ring
Chain of GST-linker BIR 2 BIR3Ring (chain, as listed by the source): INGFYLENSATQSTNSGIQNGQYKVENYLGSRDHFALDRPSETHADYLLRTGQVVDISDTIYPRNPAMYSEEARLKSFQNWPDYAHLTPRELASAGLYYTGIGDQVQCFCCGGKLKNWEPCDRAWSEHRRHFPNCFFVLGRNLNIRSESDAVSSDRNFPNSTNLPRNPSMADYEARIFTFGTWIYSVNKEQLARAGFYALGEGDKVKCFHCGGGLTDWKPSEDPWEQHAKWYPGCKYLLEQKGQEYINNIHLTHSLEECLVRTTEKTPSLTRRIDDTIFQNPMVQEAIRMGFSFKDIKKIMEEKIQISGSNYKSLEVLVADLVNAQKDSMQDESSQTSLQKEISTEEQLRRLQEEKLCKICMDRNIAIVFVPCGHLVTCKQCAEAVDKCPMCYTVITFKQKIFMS

B1: caspase-3 (protein)
chain: SGISLDNSYKMDYPEMGLCIIINNKNFHKSTGMTSRSGTDVDAANLRETFRNLKYEVRNKNDLTREEIVELMRDVSKEDHSKRSSFVCVLLSHGEEGIIFGTNGPVDLKKITNFFRGDRCRSLTGKPKLFIIQACRGTELDCGIETDSGVDDDMACHKIPVEADFLYAYSTAPGYYSWRNSKDGSWFIQSLCAMLKQYADKLEFMHILTRVNRKVATEFESFSFDATFHAKKQIPCIVSMLTKELYFYH
- Caspase 3 activity (DEVD-AMC hydrolysis, Vo of AMC fluorescence/sec) [1]: caspase-3 was inhibited by linker-BIR2 or linker BIR2-BIR3-RING of XIAP
- Caspase 3 activity (DEVD-AMC hydrolysis, Vo of AMC fluorescence/sec) [2]: caspase-3 was inhibited by linker-BIR2 or linker BIR2-BIR3-RING of XIAP
